Results taken from patent publication US20210188933A1.

Target: IL-15RβγC
Assay: cell-based or functional assay

Work on “ALT-803 (IL-15N72D:IL-15RαSu/Fc complex) (from UniProt Q13261 31-95) (Fc fusion)” yielded an EC50 of ALT-803 stimulated proliferation of IL-15RβγC-bearing cells of 0.016 nM.
